In the Immune Epitope Database (IEDB):

What was measured:
[1] = molecular target: HLA-B*57:01; assay: IEDB peptide-MHC binding, purified MHC/competitive/radioactivity; filed as Kd, often an IC50 or EC50 that approximates it; ≥ and ≤ were set here for values at or beyond the usual limits of such assays
[2] = molecular target: HLA-B*57:01; assay: IEDB peptide-MHC binding, purified MHC/competitive/radioactivity; ≥ and ≤ were set here for values at or beyond the usual limits of such assays
[3] = source organism: Simian immunodeficiency virus
[4] = source organism: Human immunodeficiency virus 2
[5] = source organism: Mammarenavirus choriomeningitidis

Sequence: LKSLYNTVC
- Kd [1, 3]: ≥ 30 µM

Sequence: RTFHHGVRV
- IC50 ([2]; source organism: Homo sapiens): 0.2 µM

Sequence: KVGWAWWTC
- IC50 [2, 4]: 3 µM

Sequence: TVAPFNPTV
- IC50 ([2]; source organism: Homo sapiens): 1 µM

Sequence: WIQLGLQKC
- Kd [1, 4]: ≥ 10 µM

Sequence: KVAKVEPAV
- Kd ([1]; source organism: Homo sapiens): ≥ 70 µM

Sequence: RVAGIHKKV
- Kd ([1]; source organism: Homo sapiens): ≥ 70 µM

Sequence: SSCIAQDNC
- Kd [1, 3]: ≥ 50 µM

Sequence: ATIKLQSTV
- IC50 ([2]; source organism: Homo sapiens): 0.1 µM

Sequence: IVSSLHLSI
- IC50 [2, 5]: 1 µM

Sequence: KIYEGQVEV
- IC50 ([2]; source organism: Homo sapiens): 10 µM

Sequence: RARQLNYTI
- IC50 ([2]; source organism: Homo sapiens): 0.0137 µM

Sequence: ATCGIFALI
- IC50 [2, 5]: 0.2 µM

Sequence: VTTDIQVKV
- IC50 ([2]; source organism: Homo sapiens): 2 µM

Sequence: MFEALPHII
- Kd [1, 5]: ≥ 50 µM

Sequence: KSNGTIIHV
- IC50 ([2]; source organism: Homo sapiens): 10 µM

Sequence: MYGLKGPDI
- Kd [1, 5]: ≥ 50 µM

Sequence: SIFLHLVKI
- IC50 [2, 5]: 0.5 µM

Sequence: QAQLNAWGC
- Kd [1, 3]: ≥ 40 µM

Sequence: LLHSTYFPC
- Kd [1, 3]: ≥ 50 µM
